In publication PMC10720262 (Cell Reports, 2023):
Changes are numbered by the printed parent chain.

Biological target: recombinant full-length PfCSP (Plasmodium falciparum circumsporozoite protein, strain NF54) (Plasmodium falciparum NF54, UniProt P19597)
Sequence (P19597 20-375): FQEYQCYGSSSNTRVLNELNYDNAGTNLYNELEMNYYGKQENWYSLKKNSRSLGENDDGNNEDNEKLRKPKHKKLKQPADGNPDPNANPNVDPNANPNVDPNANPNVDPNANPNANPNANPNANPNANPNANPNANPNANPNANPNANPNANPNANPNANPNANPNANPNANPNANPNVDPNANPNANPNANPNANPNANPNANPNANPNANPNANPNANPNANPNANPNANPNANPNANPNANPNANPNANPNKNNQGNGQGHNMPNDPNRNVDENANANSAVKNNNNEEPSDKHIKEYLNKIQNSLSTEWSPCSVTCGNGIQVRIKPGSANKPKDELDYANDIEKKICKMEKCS

B1: CL-458015 (antibody, V domains shown)
VH: QVHLVESGGGVVQPGRSLRLSCAASGFTFSNYGMHWVRQAPGKGLDWVAIIWYDGSNKFYADSVQGRFTISRDNSKNTLYLQMNSLRAEDTAVYYCAKVQDLLGVPSTLGDHYTTDVWGQGTSVTVSS
VL: DIQMTQSPSTLSASVGDRITITCRASQSINDWLAWYQQKAGKAPKLLIYKASSLESGVPSRFSGSGSGTDFTLTISSLQTDDFAIYYCQQYNHYWTFGQGTKVEIK
Does B1 bind?
Result: binds

B2: CL-460369 (antibody, V domains shown)
VH: QVQLVESGGGVVQPGRSLRLSCAASGFTFSNYGMHWVRQAPGKGLEWVGIIWYDGSNKYYIDSVKGRFTISRDNSRNTLYLQINSLRAEDTAVYYCARDGGWNDDYYYVMDVWGQGTTVTVSS
VL: DIVMTQSPDSLAVSLGEGATINCKSSQSVLYSSNNKNYLAWYQQKPGQPPKVLIYWASIRESGVPDRFSGSGSGTDFTLTISSLQAEDVAVYYCQQYYSMCSFGQGTKLEIK
Does B2 bind?
Result: binds

B3: CL-447737 (antibody, V domains shown)
VH: QVQLVESGGGVVQPGRSLRLSCAASGFTFSSYGMHWVRQAPGKGLEWVAIIWFDGSNIFYEDSVKGRFTISRDNSKNTLYLQMNSLRAEDTAVYYCAKVWNYDSDYYSMDVWGQGTTVTVSS
VL: not shown
Does B3 bind?
Result: binds

B4: CL-447376 (antibody, V domains shown)
VH: QVQLVESGGGVVQPGRSLRLSCAASGFNFNNYGMHWVRQAPVMGLEWVAIIWYDGSNKFYADSVKGRFTISRDNSQNTLFLQMNSLRAEDTGIYYCARSGGEMGNFDYWGQGTLVTVSS
VL: DIVMTQSPLSLPVTLGQPASISCRSSQSLVYSNGDTYLDWFQLRPGQSPRRLIYKVSHRDSGVPDRFSGSGSGTEFTLRISRVEAEDVGIYYCMQGTHYWTFGQGTEVEIK
Does B4 bind?
Result: binds

B5: CL-445901 (antibody, V domains shown)
VH: QVQLVESGGGVVQPGRSLRLSCAASGFTFSNYGIHWVRQAPGKGLEWVALIWFNGNNKFYADSVEGRFTVSRDNSKNTLYLQLNSLRAEDTAVYYCARAYYFASGNYMDYWGQGTLVTVSS
VL: DIQMTQSPSSVSASMGDRVTITCRASQDISSSLAWYQQKPGKAPILLISFASSLHSGVPSRFSGSGSGTDFTLTISSLQPEDFATYSCQQANSFPWTFGQGTRVEVK
Does B5 bind?
Result: binds

B6: CL-453181 (antibody, V domains shown)
VH: QVQLVESGGGVVQPGRSLRLSCAASGFTFSYYGMHWVRQAPGKGLEWVSIIWYDGSNKFYADSVKGRFTISRDNSKDTLYLEMNSLRAEDTAVYYCARVEFYNGSGRDFYYGLDVWGQGTTVTVSS
VL: EIVMTQSPATLSVSPGEGATLSCRASQSVSSNLAWYQQKPGQAPRLLISGASTRATGVPARFSGSGSGTEFALTISSLQSEDFAVYYCQQYSKLWTFGQGTKVEIK
Does B6 bind?
Result: binds

B7: CL-445457 (antibody, V domains shown)
VH: QVQLVESGGAVVQPGTSLRLSCAASGFTFSNYGIHWVRQAPGKGLQWVALIWYNGNNKFYADSVQGRFTISRDNSKNILYLQINSLSAEDTAVYYCARAFYSDSGNYMDYWGQGALVTVSS
VL: DIQMTQSPSSVSASVGDRVTITCRARQDISSRLAWYQQKPGKAPKILIYGASSLQSGVPSRFSASGSGTDFTLTISSLQPEDVASYFCQQANSFPWTFGQGTKVEIK
Does B7 bind?
Result: binds

B8: CL-445635 (antibody, V domains shown)
VH: B7 VH with I34M, D62E, Q65E, T69I, Y80F, I83M, S102Y, M108L, Q113P, A115S
VL: B7 VL with V83F, S85T, F87Y
Does B8 bind?
Result: binds

B9: CL-447703 (antibody, V domains shown)
VH: QVQLVESGGGVVQPGRSLRLSCEASGFTFSDHGMHWVRQGPGKGLEWVSIIWYDGSNKYYADSVKGRFTISRDNSKNTLYLEMNRLRAEDTALYYCARVWNHDDYKYSMDVWGQGTTVTVSS
VL: not shown
Does B9 bind?
Result: binds

B10: CL-444906 (antibody, V domains shown)
VH: QVQLVESGGGVVQPGRSLRLSCTASGFTFSTYGMHWVRQAPGKGLEWVAIIWYDGSNKFYADSVKGRFTISRDNSKDTLYLQMNSLRAEDTAIYYCARAWDKVDDKYGMDVWGQGTTVTVSS
VL: not shown
Does B10 bind?
Result: binds

B11: CL-449869 (antibody, V domains shown)
VH: B10 VH with V11A, T23A, T31Y, Y32N, Q82E, D101N, K102Y, V103D, D105K, G108S
VL: B1 VL with I19V, N30S, D31S, A40P, D70E, T80P, I85T, H93Y, Y94F, K106R
Does B11 bind?
Result: binds

B12: CL-445827 (antibody, V domains shown)
VH: QVQLVASGGGVVQPGRSLRLSCVASGFTFSFFGMHWVRQTPGRGLEWVAIIWYDGGHKFYADSVKGRFTISRDNSKDTLYLQMNSLRAEDTAVYYCARAEDNMARGNIDYSKYGMDVWGQGTTVTVSS
VL: DIQMTQSPSTLSVSIGDRVTITCRASQSISTWLAWYQQKPGKAPKLLIYKASNLESGVPSRFSGSGSGTDFTLTISGLQPDDFATYYCQQYFSYWTFGQGTKVEIK
Does B12 bind?
Result: binds

B13: CL-447563 (antibody, V domains shown)
VH: QVQLVASGGGVVQPGRSLRLSCAASGFTFSNYGMHWVRQAPGKGLEWVAIIWYDGSKKYYSDSVKGRFTISRDNSKNTLYLQMNSLRAEDTAVYYCARAYGSGSYSDDYYGMDVWGQGTTVTVSS
VL: B12 VL with V13A, I15V, D70E, G77S, F92Y
Does B13 bind?
Result: binds

B14: CL-449007 (antibody, V domains shown)
VH: QVQVVESGGGVVQPGRSLRLSCAASGFTFSNYGMHWVRQAPGKGLEWVAIIWYDGSHKFYANSVKGRFTISRDNSKNTLFLQMNSLRAEDTAVYYCARVGNGNSDWTDAFDIWGQGTMVTVSS
VL: B1 VL with I19V, D31S, A40P, D70E, T80P, I85T, H93T
Does B14 bind?
Result: binds

B15: CL-447609 (antibody, V domains shown)
VH: QVQLVESGGGVVQPGRSLRLSCAASGFTFNNYGMHWVRQAPGKGLDWVAIIWFDGSNKYYADSVKGRFTISRDNSKNTLYLQMNSLRAEDTAVYYCARVGDHSKYRNRGDAFDIWGQGTMVTVSS
VL: B12 VL with V13A, I15V, T31S, N53S, D70E, G77S, F83S, Y87F, F92D
Does B15 bind?
Result: binds

B16: CL-449849 (antibody, V domains shown)
VH: QVQLVESGGGAVQAGTSLRLSCAASGFTFSYNGMHWVRQGPGKGLEWVAIIWYDGGNKFYADSVKGRFTISRDNSKNMLYLQMNRLRAEDTAVYYCARAWNFADNKYSMDVWGQGTTVTVSS
VL: B12 VL with V13A, I15V, T31S, K45Q, N53S, D70E, G77S, F92Y, S93I, E104D
Does B16 bind?
Result: binds

B17: CL-460406 (antibody, V domains shown)
VH: QIQLVESGGGVVQPGRSLRLSCAASGFTFSNSGMHWIRQAPGKGLEWVTIIWYDGSNKYYADSVKGRFTISRDNSKNTLYLQMNSLRAEDTAIYYCARAYSSSSDDYYGMDVWGQGTTVTVSS
VL: B12 VL with V13A, I15V, T31S, N53S, G77S, Y91F, F92Y, S93N, K106T
Does B17 bind?
Result: binds

B18: CL-459075 (antibody, V domains shown)
VH: B13 VH with A49S
VL: B12 VL with V13A, I15V, Y36C, D70E, G77S, F92Y
Does B18 bind?
Result: binds

B19: CL-459404 (antibody, V domains shown)
VH: B13 VH with Y80N
VL: B12 VL with V13A, I15V, T31P, Y36F, D70E, G77S, F92Y, S93T
Does B19 bind?
Result: binds

B20: CL-449759 (antibody, V domains shown)
VH: QVHLVESGGGVVQPGESQRLSCAASGFTFSNYGMHWVRQAPGKGLEWVALIWYDGSNKFYADSVKGRFTISRDNSKNTLYLHMNSLRAEDTAMYYCAKVPNWNDDKYTMDVWGQGTTVTVTS
VL: not shown
Does B20 bind?
Result: binds

B21: CL-462788 (antibody, V domains shown)
VH: QVQLVESGGGVVQPGRSLRLSCAASGFTFRNYGMHWVRQAPGKGLEWVAIIWYDGSYKFYADSVKGRFTISRDNSKNTLYLQMNSLRAEDTAMYYCARDDALELRSFDIWGQGTMVTVSS
VL: DVVMTQSPLSLPVTLGQPASISCRSSQSLVYSDENTYLSWFQQRPGQSPRRLIYKISNRDSGVPDRFSGSGSGTDFTLKISRVEAEDVGVYYCMQGTHWPRTFGQGTEVEIK
Does B21 bind?
Result: binds

B22: CL-460619 (antibody, V domains shown)
VH: QVQLVESGGGVVQPGRSLRLSCAASGFTFDYYGMHWVRQAPGKGLEGVAIIWYDGSNKFYADSVKGRFTISRDNSKNTLYLQMTSLRVEDTAVYYCARDGRIGDPGPYFDYWGQGTLVTVSS
VL: EIVMTQSPATLSVSPGERPTLSCRASQSVSSKLAWYQQKPDQAPRLLIYGASTRATGIPPRFSGSGSGTEFTLTIDSLQSEDFAVYYCQQYHKWWTFGQGTKVEIK
Does B22 bind?
Result: binds

B23: CL-449724 (antibody, V domains shown)
VH: QVHLVASGGGVVQPGRSLRLSCEVTGFTFSSYGMHWVRQDPGRGLEWVAIIWYDGSNKFYADSVKGRFTISRDNSKNTLYLQMNSLRAEDTAVYYCARSYGILTGYQTKYGMDVWGQGTTVTVSS
VL: not shown
Does B23 bind?
Result: binds

B24: CL-460506 (antibody, V domains shown)
VH: QVQLVESGGGVVQPGRSLRLSCAASGFTFSNYGMHWVRQAPGKGLEWMAIIWYDGSNKYYADSVKGRFTISRDNSMNTLYLQMNSLRPEDTALYYCARAFYYGSGTLDYWGQGTLVTVSS
VL: EIVLTQSPATLSVSPGERATLSCRASQSVSSHLAWYQQKFGQAPRLLIYGASNRATGIPARFSGSGSGTEFTLTISILQSEDFAVYYCQQYNNWFTFGPGTKIDIK
Does B24 bind?
Result: binds

B25: CL-450034 (antibody, V domains shown)
VH: B16 VH with F102Y, N105S
VL: not shown
Does B25 bind?
Result: binds
